Assay results reported in patent US20070224178A1 (Sanofi, published 2007).

B1: D2-9Gly-CH3 (other)
chain: PFVEMYSEIPEIIHMTEGRELVIPCRVTSPNITVTLKKFPLDTLIPDGKRIIWDSRKGFIISNATYKEIGLLTCEATVNGHLYKTNYLTHRQTGGGGGGGGGGQPREPQVYTLPPSREEMTKNQVSLTCLVKGFYPSDIAVEWESNGQPENNYKTTPPVLDSDGSFFLYSKLTVDKSRWQQGNVFSCSVMHEALHNHYTQKSLSLSPGK
notes: domain: Flt-1 domain 2; Conditioned medium of transfected 293 cells
B2: D2-9Gly-Ex3/CH3 (other)
chain: PFVEMYSEIPEIIHMTEGRELVIPCRVTSPNITVTLKKFPLDTLIPDGKRIIWDSRKGFIISNATYKEIGLLTCEATVNGHLYKTNYLTHRQTGGGGGGGGGPSCVPLMRCGGCCNGQPREPQVYTLPPSREEMTKNQVSLTCLVKGFYPSDIAVEWESNGQPENNYKTTPPVLDSDGSFFLYSKLTVDKSRWQQGNVFSCSVMHEALHNHYTQKSLSLSPGK
notes: as for B1
B3: D(1-3) (receptor, human (by the accession given in p-0034), UniProt P17948 27-328, looked up)
soluble receptor fragment: SKLKDPELSLKGTQHIMQAGQTLHLQCRGEAAHKWSLPEMVSKESERLSITKSACGRNGKQFCSTLTLNTAQANHTGFYSCKYLAVPTSKKKETESAIYIFISDTGRPFVEMYSEIPEIIHMTEGRELVIPCRVTSPNITVTLKKFPLDTLIPDGKRIIWDSRKGFIISNATYKEIGLLTCEATVNGHLYKTNYLTHRQTNTIIDVQISTPRPVKLLRGHTLVLNCTATTPLNTRVQMTWSYPDEKNKRASVRRRIDQSNSHANIFYSVLTIDKMQNKDKGLYTCRVRSGPSFKSVNTSVHI
notes: soluble fragment, Ig-like domains 1-3; made in conditioned medium of 293 cells; also called Flt-1 D(1-3) control soluble receptor

Assays:
[1] = biological target: Vascular endothelial growth factor (VEGF) (Homo sapiens (Human)) (UniProt P15692); experiment: surface plasmon resonance (BIAcore), sFlt-1 construct immobilized on the chip, VEGF165 injected at 0.2 to 15 nM; column Kd
[2] = biological target: Vascular endothelial growth factor (VEGF) (Homo sapiens (Human)) (UniProt P15692); experiment: surface plasmon resonance (BIAcore), sFlt-1 construct immobilized on the chip, VEGF165 injected at 0.2 to 15 nM; column Ka
[3] = biological target: Vascular endothelial growth factor (VEGF) (Homo sapiens (Human)) (UniProt P15692); experiment: surface plasmon resonance (BIAcore), sFlt-1 construct immobilized on the chip, VEGF165 injected at 0.2 to 15 nM; the column head prints KD (nM), but the printed Kd/Ka (1.22e-3 / 2.71e6) gives about 4.5e-10 M
[4] = biological target: T1, Vascular endothelial growth factor (VEGF) (Homo sapiens (Human), UniProt P15692 181-395); experiment: solution binding assay: serially diluted conditioned medium with soluble receptor mixed with 10 pM VEGF, unbound VEGF measured by ELISA
T1 construct: also called VEGF165; VEGF A
T1 sequence: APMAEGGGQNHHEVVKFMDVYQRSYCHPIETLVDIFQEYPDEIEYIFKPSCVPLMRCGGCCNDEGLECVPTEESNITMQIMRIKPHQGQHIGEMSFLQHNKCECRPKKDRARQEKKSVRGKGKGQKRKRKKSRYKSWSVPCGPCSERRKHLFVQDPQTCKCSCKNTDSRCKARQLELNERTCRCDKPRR
Method: FIG. 11. VEGF “in vitro” binding assay. Conditioned media from 293 cells containing known concentrations of both D2-9Gly-Fc and Flt-1 D(1-3) control soluble receptors (ranging in concentrations from 0.29-150 pM) were serially diluted and mixed with 10 pM VEGF. The amount of unbound VEGF was then measured by ELISA. D2-9Gly-Fc binds VEGF with higher affinity than all other constructs. “n” represents the number of independent experiments (transfection and binding assay).
Briefly, conditioned media containing known concentrations of soluble receptor (ranging in concentrations from 0.29-150 pM) were serially diluted and mixed with 10 pM VEGF. The amount of unbound VEGF was then measured by ELISA. […] D2-CH3 has the lowest affinity to bind VEGF (FIG. 11).

Molecule	koff [1] [s⁻¹]	kon [2] [M⁻¹ s⁻¹]	Kd [3] [pM]	IC50 (read off the curve) [4] [pM]
rFlt-1(Fc)(R&D) (from UniProt P17948-2) (Fc fusion)	0.00122	2.71e+06	448	–
B1	–	–	–	~0.5
B2	–	–	–	~0.9
B3	–	–	–	~1
